Experimental data as given in patent US20180208666A1 (VENTANA MEDICAL SYSTEMS, published 2018).
Ends that are not written are not given here.

Experiments:
human OX40 = biological target: T1, human OX40 (human, UniProt P43489 29-277); experiment: IHC on FFPE OX-40 transfected cells and FFPE tissues, ultraView DAB detection
T1 construct: no signal peptide limits are stated
T1 sequence: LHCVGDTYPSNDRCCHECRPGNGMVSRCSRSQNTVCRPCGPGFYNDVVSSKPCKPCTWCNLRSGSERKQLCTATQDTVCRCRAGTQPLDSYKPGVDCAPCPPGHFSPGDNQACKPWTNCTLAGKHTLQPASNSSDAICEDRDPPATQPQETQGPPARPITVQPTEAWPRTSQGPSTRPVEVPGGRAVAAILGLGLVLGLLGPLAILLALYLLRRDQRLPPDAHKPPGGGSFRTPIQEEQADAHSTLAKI
Method: IHC was performed using StdCC1 cell conditioning with ultraView Universal DAB Detection Kit (Ventana Medical Systems, Inc., Tucson, Ariz.). Primary antibody was incubated for 16 min at 37° C. on a BenchMark ULTRA automated slide stainer (Ventana Medical Systems, Inc., Tucson, Ariz.). Results are shown at Fig. (A) Mock transfected cells (negative control cells); (B) OX-40 transfected cells (positive control cells); (C) Reactive lymph node; and (D) Prostate adenocarcinoma.

[1] = biological target: T2, peptide fragment of amino acid residues 266-277 of OX40 (human, also: conjugated to KLH for immunisation); experiment: ELISA screen of antibody-expressing cells on the OX40 antigen (peptide 266-277)
T2 construct: It was conjugated to KLH for immunisation; also called OX40 antigen; 12-amino acid fragment
T2 peptide: EQADAHSTLAKI
Text: Anti-OX40 rabbit monoclonal antibodies were generated as schematically depicted in FIG. 1. Briefly, the peptide fragment of amino acid residues 266-277 of was synthesized. The 12-amino acid fragment intended for immunization was conjugated to keyhole limpet hemocyanin (KLH), an extensively used carrier protein for stimulating a substantial immune response via antibody production. New Zealand White rabbits were immunized with KLH conjugated OX40 antigen emulsified with complete Freund's adjuvant followed by a series of OX40 antigen booster emulsified with incomplete Freund's adjuvant. The antibody-expressing cells were screened by enzyme-linked immunoabsorbant assay (ELISA) using the OX40 antigen. All ELISA positive clones were further screened by immunohistochemistry (IHC), and the clone producing the antibody with the highest specificity was selected. For recombinant production of anti-OX40 antibodies, cDNA coding for the heavy chain and light chain sequences of the antibodies were cloned, expressed by co-transfection, and screened for binding to OX40 by IHC. Anti-OX40 monoclonal antibody SP197 was produced using these methods and subsequently purified by Protein A affinity chromatography. The heavy and light chain variable region sequences of the SP197 antibody are as follows.

- binding result (human OX40): binds
- binding result [1]: binds
B1: Anti-OX40 monoclonal antibody SP197 (antibody, V domains shown)
VH: QSLEESGGRLVAPGGSLTLTCTVSGIDLSSDNIQWVRQAPGKGLEWIGAVDYNNKPFYANWAKGRFTISKTSSTTVDLKMTSLTTEDTATYFCAKNTFSPWGPGTLVTVSS
VL: DPAMTQTPSSTSAAVGGTVTINCQSSQSVYNANHLSWFQQKPGQPPKRLIYYISTPDSGVPPRFSGSGSGTQFTLTISGVQCDDAATYYCAALNSDEVFTFGGGTEVVVK
notes: also called rabbit anti-human OX-40 monoclonal antibody (SP197); anti-OX40 antibody SP197
